In patent US20230357342A1:
Each block holds one substance with its values, some of them ahead of it.

How the values were obtained:
[1] = molecular target: wild type IL-18 (SEQ ID NO: 1, native sequence) (human) (UniProt Q14116); test: cell-based or functional assay
[2] = molecular target: modified IL-18 polypeptide SEQ ID NO: 207 (V11I, C38A, M51G, K53A, C76A, C127A) (human) (UniProt Q14116); test: cell-based or functional assay
[3] = molecular target: modified IL-18 polypeptide SEQ ID NO: 30 (E6K, V11I, C38A, K53A, T63A, C76A, C127A) (human) (UniProt Q14116); test: cell-based or functional assay
[4] = molecular target: PEGylated modified IL-18 polypeptide SEQ ID NO: 6 + PEG (E6K, V11I, C38A, K53A, T63A, C68A, C76A, C127A, D98C-30kPEG) (human) (UniProt Q14116); test: cell-based or functional assay
[5] = molecular target: modified IL-18 polypeptide SEQ ID NO: 210 (V11I, E31A, C38A, K53A, C76A, C127A) (human) (UniProt Q14116); test: cell-based or functional assay
[6] = molecular target: modified IL-18 polypeptide SEQ ID NO: 225 (V11I, C38A, S55H, C76A, C127A) (human) (UniProt Q14116); test: cell-based or functional assay
[7] = molecular target: modified IL-18 polypeptide SEQ ID NO: 205 (V11I, C38A, K53A, T63A, C76A, C127A) (human) (UniProt Q14116); test: cell-based or functional assay
[8] = molecular target: modified IL-18 polypeptide SEQ ID NO: 220 (V11I, C38A, K53A, C76A, H109A, C127A) (human) (UniProt Q14116); test: cell-based or functional assay
[9] = molecular target: modified IL-18 polypeptide SEQ ID NO: 209 (F2A, V11I, C38A, K53A, C76A, C127A) (human) (UniProt Q14116); test: cell-based or functional assay
[10] = molecular target: modified IL-18 polypeptide SEQ ID NO: 57 (E6K, C38S, K53A) (human) (UniProt Q14116); test: cell-based or functional assay
[11] = molecular target: modified IL-18 polypeptide SEQ ID NO: 212 (V11I, D35A, C38A, K53A, C76A, C127A) (human) (UniProt Q14116); test: cell-based or functional assay
[12] = molecular target: modified IL-18 polypeptide SEQ ID NO: 5 (E6K, V11I, C38A, K53A, T63A, C68A, C76A, M86C, C127A) (human) (UniProt Q14116); test: cell-based or functional assay
[13] = molecular target: modified IL-18 polypeptide SEQ ID NO: 229 (V11I, C38A, C76A, S105K, C127A) (human) (UniProt Q14116); test: cell-based or functional assay
[14] = molecular target: modified IL-18 polypeptide SEQ ID NO: 62 (E6K, C38A, K53A, C127A) (human) (UniProt Q14116); test: cell-based or functional assay
[15] = molecular target: modified IL-18 polypeptide SEQ ID NO: 60 (E6K, C38Q, K53A) (human) (UniProt Q14116); test: cell-based or functional assay
[16] = molecular target: modified IL-18 polypeptide SEQ ID NO: 223 (K8E, V11I, C38A, C76A, Q103R, C127A) (human) (UniProt Q14116); test: cell-based or functional assay
[17] = molecular target: modified IL-18 polypeptide SEQ ID NO: 226 (V11I, C38A, S55R, C76A, C127A) (human) (UniProt Q14116); test: cell-based or functional assay
[18] = molecular target: modified IL-18 polypeptide SEQ ID NO: 11 (E6K, V11I, C38A, K53A, C76A, C127A) (human) (UniProt Q14116); test: cell-based or functional assay
[19] = molecular target: modified IL-18 polypeptide SEQ ID NO: 204 (V11I, C38A, K53A, C76A, C127A) (human) (UniProt Q14116); test: cell-based or functional assay
[20] = molecular target: modified IL-18 polypeptide SEQ ID NO: 221 (V11I, C38A, K53A, C76A, D110A, C127A) (human) (UniProt Q14116); test: cell-based or functional assay
[21] = molecular target: modified IL-18 polypeptide SEQ ID NO: 8 (E6K, V11I, C38A, K53A, T63A, C68A, C76A, T95C, C127A) (human) (UniProt Q14116); test: cell-based or functional assay
[22] = molecular target: modified IL-18 polypeptide SEQ ID NO: 206 (V11I, C38A, K53A, S55A, C76A, C127A) (human) (UniProt Q14116); test: cell-based or functional assay
[23] = molecular target: modified IL-18 polypeptide SEQ ID NO: 224 (V11I, C38A, C76A, Q103K, C127A) (human) (UniProt Q14116); test: cell-based or functional assay
[24] = molecular target: modified IL-18 polypeptide SEQ ID NO: 217 (V11I, C38A, N41A, K53A, C76A, C127A) (human) (UniProt Q14116); test: cell-based or functional assay
[25] = molecular target: modified IL-18 polypeptide SEQ ID NO: 222 (K8R, V11I, C38A, C76A, Q103E, C127A) (human) (UniProt Q14116); test: cell-based or functional assay
[26] = molecular target: PEGylated modified IL-18 polypeptide SEQ ID NO: 9 + PEG (E6K, C38A, K53A, C68A, D98C-30kPEG) (human) (UniProt Q14116); test: cell-based or functional assay
[27] = molecular target: modified IL-18 polypeptide SEQ ID NO: 227 (V11I, C38A, S55T, C76A, C127A) (human) (UniProt Q14116); test: cell-based or functional assay
[28] = molecular target: modified IL-18 polypeptide SEQ ID NO: 214 (V11I, D37A, C38A, K53A, C76A, C127A) (human) (UniProt Q14116); test: cell-based or functional assay
[29] = molecular target: PEGylated modified IL-18 polypeptide SEQ ID NO: 5 + PEG (E6K, V11I, C38A, K53A, T63A, C68A, C76A, C127A, M86C-30kPEG) (human) (UniProt Q14116); test: cell-based or functional assay
[30] = molecular target: modified IL-18 polypeptide SEQ ID NO: 59 (E6K, C38A, K53A) (human) (UniProt Q14116); test: cell-based or functional assay
[31] = molecular target: modified IL-18 polypeptide SEQ ID NO: 213 (V11I, S36A, C38A, K53A, C76A, C127A) (human) (UniProt Q14116); test: cell-based or functional assay
[32] = molecular target: PEGylated modified IL-18 polypeptide SEQ ID NO: 4 + PEG (E6K, C38A, K53A, C68A, M86C-30kPEG) (human) (UniProt Q14116); test: cell-based or functional assay
[33] = molecular target: modified IL-18 polypeptide SEQ ID NO: 211 (V11I, T34A, C38A, K53A, C76A, C127A) (human) (UniProt Q14116); test: cell-based or functional assay
[34] = molecular target: modified IL-18 polypeptide SEQ ID NO: 28 (E6K, C38A, K53A, T63A, C76A, C127A) (human) (UniProt Q14116); test: cell-based or functional assay
[35] = molecular target: modified IL-18 polypeptide SEQ ID NO: 219 (V11I, C38A, K53A, C76A, G108A, C127A) (human) (UniProt Q14116); test: cell-based or functional assay
[36] = molecular target: modified IL-18 polypeptide SEQ ID NO: 63 (E6K, C38A, K53A, C76A, C127A) (human) (UniProt Q14116); test: cell-based or functional assay
[37] = molecular target: modified IL-18 polypeptide SEQ ID NO: 61 (E6K, C38A, K53A, C76A) (human) (UniProt Q14116); test: cell-based or functional assay
[38] = molecular target: modified IL-18 polypeptide SEQ ID NO: 6 (E6K, V11I, C38A, K53A, T63A, C68A, C76A, D98C, C127A) (human) (UniProt Q14116); test: cell-based or functional assay
[39] = molecular target: modified IL-18 polypeptide SEQ ID NO: 216 (V11I, C38A, D40A, K53A, C76A, C127A) (human) (UniProt Q14116); test: cell-based or functional assay
[40] = molecular target: modified IL-18 polypeptide SEQ ID NO: 4 (E6K, C38A, K53A, C68A, M86C) (human) (UniProt Q14116); test: cell-based or functional assay
[41] = molecular target: modified IL-18 polypeptide SEQ ID NO: 228 (V11I, C38A, C76A, S105I, C127A) (human) (UniProt Q14116); test: cell-based or functional assay
[42] = molecular target: modified IL-18 polypeptide SEQ ID NO: 218 (V11I, C38A, K53A, C76A, C127A, D132A) (human) (UniProt Q14116); test: cell-based or functional assay
[43] = molecular target: modified IL-18 polypeptide SEQ ID NO: 215 (V11I, E31A, D37A, C38A, K53A, C76A, C127A) (human) (UniProt Q14116); test: cell-based or functional assay
[44] = molecular target: modified IL-18 polypeptide SEQ ID NO: 208 (V11I, C38A, K53A, D54A, C76A, C127A) (human) (UniProt Q14116); test: cell-based or functional assay
[45] = molecular target: modified IL-18 polypeptide SEQ ID NO: 9 (E6K, C38A, K53A, C68A, D98C) (human) (UniProt Q14116); test: cell-based or functional assay
[46] = molecular target: Fc fused human IL-18BP isoform a (IL-18BPa) (human) (UniProt O95998); test: SPR, Fc-IL-18BPa captured via anti-human IgG, IL-18 as analyte, 1:1 model
[47] = molecular target: His-tagged human IL-18BP (human) (UniProt O95998); test: alphaLISA of free IL-18BP after 1 h with titrated IL-18

Sequence of Fc fused human IL-18BP isoform a (IL-18BPa) (human) (O95998 31-194): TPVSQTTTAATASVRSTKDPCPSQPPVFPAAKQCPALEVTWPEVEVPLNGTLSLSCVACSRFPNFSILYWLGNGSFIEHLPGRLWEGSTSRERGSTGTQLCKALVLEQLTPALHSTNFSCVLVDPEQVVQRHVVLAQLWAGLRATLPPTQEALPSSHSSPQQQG
Sequence of wild type IL-18 (SEQ ID NO: 1, native sequence) (Q14116 37-193): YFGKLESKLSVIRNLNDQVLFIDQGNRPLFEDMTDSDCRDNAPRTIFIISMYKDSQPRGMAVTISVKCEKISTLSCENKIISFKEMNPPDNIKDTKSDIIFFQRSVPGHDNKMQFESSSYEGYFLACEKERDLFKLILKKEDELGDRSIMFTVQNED
Sequence of PEGylated modified IL-18 polypeptide SEQ ID NO: 4 + PEG (E6K, C38A, K53A, C68A, M86C-30kPEG) (human) (Q14116 other isoform, or with tags, fused parts or gaps C38A K53A C68A M86C C38A K53A C68A M86C): as the sequence (Q14116 37-193) above, with E6K, C38A, K53A, C68A, M86C counted along it
Sequence of modified IL-18 polypeptide SEQ ID NO: 4 (E6K, C38A, K53A, C68A, M86C) (human) (Q14116 other isoform, or with tags, fused parts or gaps C38A K53A C68A M86C C38A K53A C68A M86C): as the sequence (Q14116 37-193) above, with E6K, C38A, K53A, C68A, M86C counted along it
Sequence of modified IL-18 polypeptide SEQ ID NO: 205 (V11I, C38A, K53A, T63A, C76A, C127A) (human) (Q14116 37-193 V47I/C74A/K89A/T99A/C112A/C163A): as the sequence (Q14116 37-193) above, with V11I, C38A, K53A, T63A, C76A, C127A counted along it
Sequence of modified IL-18 polypeptide SEQ ID NO: 222 (K8R, V11I, C38A, C76A, Q103E, C127A) (human) (Q14116 other isoform, or with tags, fused parts or gaps V11I C38A C76A Q103E C127A V11I C38A C76A Q103E C127A): as the sequence (Q14116 37-193) above, with K8R, V11I, C38A, C76A, Q103E, C127A counted along it
Sequence of modified IL-18 polypeptide SEQ ID NO: 221 (V11I, C38A, K53A, C76A, D110A, C127A) (human) (Q14116 37-193 V47I/C74A/K89A/C112A/D146A/C163A): as the sequence (Q14116 37-193) above, with V11I, C38A, K53A, C76A, D110A, C127A counted along it
Sequence of modified IL-18 polypeptide SEQ ID NO: 229 (V11I, C38A, C76A, S105K, C127A) (human) (Q14116 37-193 V47I/C74A/C112A/S141K/C163A): as the sequence (Q14116 37-193) above, with V11I, C38A, C76A, S105K, C127A counted along it
Sequence of wild type IL-18 (SEQ ID NO: 1, native sequence) (human) (Q14116 37-193): as the sequence (Q14116 37-193) above
Sequence of modified IL-18 polypeptide SEQ ID NO: 8 (E6K, V11I, C38A, K53A, T63A, C68A, C76A, T95C, C127A) (human) (Q14116 other isoform, or with tags, fused parts or gaps with the stated changes): as the sequence (Q14116 37-193) above, with E6K, V11I, C38A, K53A, T63A, C68A, C76A, T95C, C127A counted along it
Sequence of modified IL-18 polypeptide SEQ ID NO: 227 (V11I, C38A, S55T, C76A, C127A) (human) (Q14116 37-193 V47I/C74A/S91T/C112A/C163A): as the sequence (Q14116 37-193) above, with V11I, C38A, S55T, C76A, C127A counted along it
Sequence of modified IL-18 polypeptide SEQ ID NO: 210 (V11I, E31A, C38A, K53A, C76A, C127A) (human) (Q14116 37-193 V47I/E67A/C74A/K89A/C112A/C163A): as the sequence (Q14116 37-193) above, with V11I, E31A, C38A, K53A, C76A, C127A counted along it
Sequence of modified IL-18 polypeptide SEQ ID NO: 223 (K8E, V11I, C38A, C76A, Q103R, C127A) (human) (Q14116 other isoform, or with tags, fused parts or gaps V11I C38A C76A Q103R C127A V11I C38A C76A Q103R C127A): as the sequence (Q14116 37-193) above, with K8E, V11I, C38A, C76A, Q103R, C127A counted along it
Sequence of modified IL-18 polypeptide SEQ ID NO: 212 (V11I, D35A, C38A, K53A, C76A, C127A) (human) (Q14116 37-193 V47I/D71A/C74A/K89A/C112A/C163A): as the sequence (Q14116 37-193) above, with V11I, D35A, C38A, K53A, C76A, C127A counted along it
Sequence of modified IL-18 polypeptide SEQ ID NO: 218 (V11I, C38A, K53A, C76A, C127A, D132A) (human) (Q14116 37-193 V47I/C74A/K89A/C112A/C163A/D168A): as the sequence (Q14116 37-193) above, with V11I, C38A, K53A, C76A, C127A, D132A counted along it
Sequence of modified IL-18 polypeptide SEQ ID NO: 217 (V11I, C38A, N41A, K53A, C76A, C127A) (human) (Q14116 37-193 V47I/C74A/N77A/K89A/C112A/C163A): as the sequence (Q14116 37-193) above, with V11I, C38A, N41A, K53A, C76A, C127A counted along it
Sequence of modified IL-18 polypeptide SEQ ID NO: 206 (V11I, C38A, K53A, S55A, C76A, C127A) (human) (Q14116 37-193 V47I/C74A/K89A/S91A/C112A/C163A): as the sequence (Q14116 37-193) above, with V11I, C38A, K53A, S55A, C76A, C127A counted along it
Sequence of modified IL-18 polypeptide SEQ ID NO: 62 (E6K, C38A, K53A, C127A) (human) (Q14116 other isoform, or with tags, fused parts or gaps C38A K53A C127A C38A K53A C127A): as the sequence (Q14116 37-193) above, with E6K, C38A, K53A, C127A counted along it
Sequence of modified IL-18 polypeptide SEQ ID NO: 226 (V11I, C38A, S55R, C76A, C127A) (human) (Q14116 37-193 V47I/C74A/S91R/C112A/C163A): as the sequence (Q14116 37-193) above, with V11I, C38A, S55R, C76A, C127A counted along it
Sequence of modified IL-18 polypeptide SEQ ID NO: 28 (E6K, C38A, K53A, T63A, C76A, C127A) (human) (Q14116 other isoform, or with tags, fused parts or gaps C38A K53A T63A C76A C127A C38A K53A T63A C76A C127A): as the sequence (Q14116 37-193) above, with E6K, C38A, K53A, T63A, C76A, C127A counted along it
Sequence of modified IL-18 polypeptide SEQ ID NO: 9 (E6K, C38A, K53A, C68A, D98C) (human) (Q14116 other isoform, or with tags, fused parts or gaps C38A K53A C68A D98C C38A K53A C68A D98C): as the sequence (Q14116 37-193) above, with E6K, C38A, K53A, C68A, D98C counted along it
Sequence of PEGylated modified IL-18 polypeptide SEQ ID NO: 9 + PEG (E6K, C38A, K53A, C68A, D98C-30kPEG) (human) (Q14116 other isoform, or with tags, fused parts or gaps C38A K53A C68A D98C C38A K53A C68A D98C): as the sequence (Q14116 37-193) above, with E6K, C38A, K53A, C68A, D98C counted along it
Sequence of modified IL-18 polypeptide SEQ ID NO: 220 (V11I, C38A, K53A, C76A, H109A, C127A) (human) (Q14116 37-193 V47I/C74A/K89A/C112A/H145A/C163A): as the sequence (Q14116 37-193) above, with V11I, C38A, K53A, C76A, H109A, C127A counted along it
Sequence of modified IL-18 polypeptide SEQ ID NO: 5 (E6K, V11I, C38A, K53A, T63A, C68A, C76A, M86C, C127A) (human) (Q14116 other isoform, or with tags, fused parts or gaps with the stated changes): as the sequence (Q14116 37-193) above, with E6K, V11I, C38A, K53A, T63A, C68A, C76A, M86C, C127A counted along it
Sequence of PEGylated modified IL-18 polypeptide SEQ ID NO: 5 + PEG (E6K, V11I, C38A, K53A, T63A, C68A, C76A, C127A, M86C-30kPEG) (human) (Q14116 other isoform, or with tags, fused parts or gaps with the stated changes): as the sequence (Q14116 37-193) above, with E6K, V11I, C38A, K53A, T63A, C68A, C76A, M86C, C127A counted along it
Sequence of modified IL-18 polypeptide SEQ ID NO: 204 (V11I, C38A, K53A, C76A, C127A) (human) (Q14116 37-193 V47I/C74A/K89A/C112A/C163A): as the sequence (Q14116 37-193) above, with V11I, C38A, K53A, C76A, C127A counted along it
Sequence of modified IL-18 polypeptide SEQ ID NO: 61 (E6K, C38A, K53A, C76A) (human) (Q14116 other isoform, or with tags, fused parts or gaps C38A K53A C76A C38A K53A C76A): as the sequence (Q14116 37-193) above, with E6K, C38A, K53A, C76A counted along it
Sequence of modified IL-18 polypeptide SEQ ID NO: 215 (V11I, E31A, D37A, C38A, K53A, C76A, C127A) (human) (Q14116 37-193 V47I/E67A/D73A/C74A/K89A/C112A/C163A): as the sequence (Q14116 37-193) above, with V11I, E31A, D37A, C38A, K53A, C76A, C127A counted along it

IC50, IFNγ secretion by NK-92 cells [1]: 0.787 nM
IC50, IFNγ secretion by NK-92 cells [2]: 733 nM
IC50, IFNγ secretion by NK-92 cells [3]: 488 nM
IC50, IFNγ secretion by NK-92 cells [4]: 14.3 nM
IC50, IFNγ secretion by NK-92 cells [5]: 1.17 nM
IC50, IFNγ secretion by NK-92 cells [6]: 0.456 nM
IC50, IFNγ secretion by NK-92 cells [7]: 7.52 nM
IC50, IFNγ secretion by NK-92 cells [8]: 1.81 nM
IC50, IFNγ secretion by NK-92 cells [9]: 5.05 nM
IC50, IFNγ secretion by NK-92 cells [10]: 146 nM
IC50, IFNγ secretion by NK-92 cells [11]: 3.62 nM
IC50, IFNγ secretion by NK-92 cells [12]: 62.4 nM
IC50, IFNγ secretion by NK-92 cells [13]: 0.176 nM
IC50, IFNγ secretion by NK-92 cells [14]: 284 nM
IC50, IFNγ secretion by NK-92 cells [15]: 780 nM
IC50, IFNγ secretion by NK-92 cells [16]: 7.29 nM
IC50, IFNγ secretion by NK-92 cells [17]: 0.885 nM
IC50, IFNγ secretion by NK-92 cells [18]: 532 nM
IC50, IFNγ secretion by NK-92 cells [19]: 1.62 nM
IC50, IFNγ secretion by NK-92 cells [20]: 3.18 nM
IC50, IFNγ secretion by NK-92 cells [21]: 522 nM
IC50, IFNγ secretion by NK-92 cells [22]: 10.2 nM
IC50, IFNγ secretion by NK-92 cells [23]: 0.823 nM
IC50, IFNγ secretion by NK-92 cells [24]: 0.681 nM
IC50, IFNγ secretion by NK-92 cells [25]: 1.07 nM
IC50, IFNγ secretion by NK-92 cells [26]: 27.2 nM
IC50, IFNγ secretion by NK-92 cells [27]: 0.44 nM
IC50, IFNγ secretion by NK-92 cells [28]: 2.22 nM
IC50, IFNγ secretion by NK-92 cells [29]: 12 nM
IC50, IFNγ secretion by NK-92 cells [30]: 654 nM
IC50, IFNγ secretion by NK-92 cells [31]: 7.85 nM
IC50, IFNγ secretion by NK-92 cells [32]: 34 nM
IC50, IFNγ secretion by NK-92 cells [33]: 21.3 nM
IC50, IFNγ secretion by NK-92 cells [34]: 233 nM
IC50, IFNγ secretion by NK-92 cells [35]: 3.98 nM
IC50, IFNγ secretion by NK-92 cells [36]: 286 nM
IC50, IFNγ secretion by NK-92 cells [37]: 779 nM
IC50, IFNγ secretion by NK-92 cells [38]: 5.85 nM
IC50, IFNγ secretion by NK-92 cells [39]: 3.23 nM
IC50, IFNγ secretion by NK-92 cells [40]: 396 nM
IC50, IFNγ secretion by NK-92 cells [41]: 0.809 nM
IC50, IFNγ secretion by NK-92 cells [42]: 6.08 nM
IC50, IFNγ secretion by NK-92 cells [43]: 3.71 nM
IC50, IFNγ secretion by NK-92 cells [44]: 47.6 nM
IC50, IFNγ secretion by NK-92 cells [45]: 961 nM
Substance: Fc fused human IL-18BP isoform a (IL-18BPa) (from UniProt O95998 31-194) (Fc fusion)

Kd [46]: 2.72 nM
koff [46]: 0.0031 s⁻¹
kon [46]: 1.14e+06 M⁻¹ s⁻¹
Substance: modified IL-18 polypeptide SEQ ID NO: 57 (E6K, C38S, K53A) (from UniProt Q14116 37-193) (ligand)

Kd [47]: 36 nM
Substance: modified IL-18 polypeptide SEQ ID NO: 59 (E6K, C38A, K53A) (from UniProt Q14116 37-193) (ligand)

Kd [46]: 0.27 nM
koff [46]: 0.000383 s⁻¹
kon [46]: 1.49e+06 M⁻¹ s⁻¹
Kd [47]: 0.414 nM
Substance: wild type IL-18 (SEQ ID NO: 1, native sequence) (from UniProt Q14116 37-193) (ligand)
